The chains are these.
B1: TIA1 (parent)
chain: TYECRCIGEEKEMWNFGEKYARF

For 97 variants, protein stability index results are on record in the supplement of paper PMC10567573.
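Note: lentivirally expressed fusions sorted by FACS into six bins by GFP to DsRed ratio, PSI derived from sequencing read proportions per bin multiplied by bin number.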

The variants in this series derive from B1. Put plainly: protein stability index of a GFP-peptide fusion (GPS, HEK-293T) (PSI 1-6); higher = more stable. The following applies: c terminus: native.
In the case of TYECRLIGEEKEMWNFGEKYARF [C6L], the protein stability index was found to be 1.56.

As to TYECRAIGEEKEMWNFGEKYARF [C6A], the protein stability index was 2.92.

On to TYECRCIGEEKWMWNFGEKYARF [E12W], for which the protein stability index is 2.5.

As to TYECRCIGEEKMMWNFGEKYARF [E12M], the protein stability index came to 1.88.

For TYECRCIGEEKVMWNFGEKYARF [E12V], the protein stability index is 1.59.

Regarding TYECRCIGEEKDMWNFGEKYARF [E12D], the protein stability index worked out at 1.91.

Take TYECRCIGEEKRMWNFGEKYARF [E12R]: the protein stability index was determined as 1.42.

On to TYECRCIGEEKNMWNFGEKYARF [E12N], for which the protein stability index came to 2.08.

Consider TYECRCIGEEKPMWNFGEKYARF [E12P], for which the protein stability index is 2.35.

In the case of TYECRCIGEEKGMWNFGEKYARF [E12G], the protein stability index turned out to be 2.71.

Consider TYECRCINEEKEMWNFGEKYARF [G8N], for which the protein stability index amounted to 2.28.

TYECRCIFEEKEMWNFGEKYARF [G8F]: the protein stability index was determined as 2.01.

As for TYECRCIKEEKEMWNFGEKYARF [G8K], the protein stability index came out at 2.18.

Take TYECRCIYEEKEMWNFGEKYARF [G8Y]: the protein stability index stood at 2.37.

As for TYECRCIVEEKEMWNFGEKYARF [G8V], the protein stability index worked out at 2.65.

Regarding TYECRCICEEKEMWNFGEKYARF [G8C], the protein stability index was determined as 1.6.

Regarding TYECRCITEEKEMWNFGEKYARF [G8T], the protein stability index stood at 2.47.

As for TYECRCIGEETEMWNFGEKYARF [K11T], the protein stability index was found to be 3.28.

Consider TYECRCIGEEGEMWNFGEKYARF [K11G], for which the protein stability index was found to be 2.62.

As for TYECRCIGEEFEMWNFGEKYARF [K11F], the protein stability index worked out at 1.53.

For the variant TYECRCIGEELEMWNFGEKYARF [K11L], the protein stability index was determined as 1.5.

Take TYECRCIGEENEMWNFGEKYARF [K11N]: the protein stability index came out at 2.69.

Take TYECRCIGEESEMWNFGEKYARF [K11S]: the protein stability index was 1.98.

TYECRCHGEEKEMWNFGEKYARF [I7H]: the protein stability index stood at 3.01.

For the variant TYECRCFGEEKEMWNFGEKYARF [I7F], the protein stability index turned out to be 2.12.

As to TYECRCLGEEKEMWNFGEKYARF [I7L], the protein stability index was found to be 1.98.

Consider TYECRCMGEEKEMWNFGEKYARF [I7M], for which the protein stability index turned out to be 1.72.

Regarding TYECRCYGEEKEMWNFGEKYARF [I7Y], the protein stability index worked out at 2.3.

With TYECRCKGEEKEMWNFGEKYARF [I7K], the protein stability index was found to be 2.18.

Turning to TYECRCEGEEKEMWNFGEKYARF [I7E], the protein stability index turned out to be 3.42.

With TYECRCNGEEKEMWNFGEKYARF [I7N], the protein stability index came to 2.66.

As to TYECRCGGEEKEMWNFGEKYARF [I7G], the protein stability index came out at 3.

In the case of TYECRCIGEEKEMWNFAEKYARF [G17A], the protein stability index was 2.27.

On to TYECRCIGEEKEMWNFHEKYARF [G17H], for which the protein stability index came out at 2.

Consider TYECRCIGEEKEMWNFDEKYARF [G17D], for which the protein stability index came out at 3.11.

Consider TYECRCIGEEKEMWNFYEKYARF [G17Y], for which the protein stability index worked out at 1.7.

As for TYECRCIGEEKEMWNFQEKYARF [G17Q], the protein stability index came out at 2.1.

TYECRCIGEEKEMWNFCEKYARF [G17C]: the protein stability index was found to be 1.75.

Take TYECRCIGEEKEMWNFFEKYARF [G17F]: the protein stability index came out at 1.81.

On to TYECRCIGEEKEMWNFNEKYARF [G17N], for which the protein stability index turned out to be 3.29.

With TYECRCIGEEKEMWNFSEKYARF [G17S], the protein stability index was 1.72.

For TYECRCIGEEKEMWNFTEKYARF [G17T], the protein stability index was found to be 2.89.

Regarding TYECRCIGEEKEMWNFWEKYARF [G17W], the protein stability index was determined as 2.2.

TYECRCIGEEKEMWLFGEKYARF [N15L]: the protein stability index amounted to 2.37.

Take TYECRCIGEEKEMWHFGEKYARF [N15H]: the protein stability index was found to be 2.33.

Turning to TYECRCIGEEKEMWIFGEKYARF [N15I], the protein stability index amounted to 2.02.

In the case of TYECRCIGEEKEMWPFGEKYARF [N15P], the protein stability index is 2.25.

In the case of TYECRCIGEEKEMWKFGEKYARF [N15K], the protein stability index came out at 1.86.

As to TYECRCIGEEKEMWTFGEKYARF [N15T], the protein stability index came out at 1.92.

As for TYECRCIGEEKEMWFFGEKYARF [N15F], the protein stability index was 2.46.

In the case of TYECRCIGEEKEMWCFGEKYARF [N15C], the protein stability index turned out to be 1.96.

With TYECRCIGEEKEMWGFGEKYARF [N15G], the protein stability index is 2.

In the case of TYECRCIGEEKEMWWFGEKYARF [N15W], the protein stability index came out at 2.77.

As to TYECRCIGEEKEMWNFGEKYTRF [A21T], the protein stability index was 1.44.

TYECRCIGEEKEMWNFGEKYDRF [A21D]: the protein stability index came to 3.1.

Regarding TYECRCIGEEKEMWNFGEKYWRF [A21W], the protein stability index is 2.42.

TYECRCIGEEKEMWNFGEKYERF [A21E]: the protein stability index is 3.16.

As to TYECRCIGEEKEMWNFGEKYVRF [A21V], the protein stability index came out at 2.37.

Take TYECRCIGEEKEMWNFGEKYQRF [A21Q]: the protein stability index came out at 2.04.

Consider TYECRCIGEEKEMWNFGEKYYRF [A21Y], for which the protein stability index came out at 1.89.

Take TYECRCIGEEKEMWNFGEKYKRF [A21K]: the protein stability index came out at 2.8.

For TYECRCIGEEKEMWNFGEKYIRF [A21I], the protein stability index was 2.72.

As to TYECRCIGEEKEMWNFGEKYSRF [A21S], the protein stability index turned out to be 1.97.

For the variant TYECRCIGEEKEMWNFGVKYARF [E18V], the protein stability index came to 3.

Take TYECRCIGEEKEMWNFGYKYARF [E18Y]: the protein stability index was determined as 1.89.

On to TYECRCIGEEKEMWNFGSKYARF [E18S], for which the protein stability index was 1.97.

In the case of TYECRCIGEEKEMWNFGDKYARF [E18D], the protein stability index was 2.22.

For the variant TYECRCIGEEKEMWNFGAKYARF [E18A], the protein stability index was 1.27.

As to TYECRCIGEEKEMWNFGHKYARF [E18H], the protein stability index came out at 2.97.

As to TYECRCIGEEKEMWNFGQKYARF [E18Q], the protein stability index is 1.8.

In the case of TYECRCIGEEKEMWNFGKKYARF [E18K], the protein stability index is 2.49.

With TYECRCIGEEKEMWNFGMKYARF [E18M], the protein stability index came out at 1.81.

TYECRCIGEIKEMWNFGEKYARF [E10I]: the protein stability index turned out to be 2.56.

With TYECRCIGEPKEMWNFGEKYARF [E10P], the protein stability index turned out to be 2.12.

For TYECRCIGEWKEMWNFGEKYARF [E10W], the protein stability index amounted to 2.52.

As for TYECRCIGETKEMWNFGEKYARF [E10T], the protein stability index was found to be 1.43.

As for TYECRCIGEQKEMWNFGEKYARF [E10Q], the protein stability index is 1.71.

Regarding TYECRCIGEEKEMKNFGEKYARF [W14K], the protein stability index stood at 1.6.

On to TYECRCIGEEKEMQNFGEKYARF [W14Q], for which the protein stability index was 2.24.

As to TYECRCIGEEKEMANFGEKYARF [W14A], the protein stability index is 2.14.

On to TYECRCIGEEKEMMNFGEKYARF [W14M], for which the protein stability index is 2.27.

As for TYECRCIGEEKEMINFGEKYARF [W14I], the protein stability index is 2.28.

For the variant TWECRCIGEEKEMWNFGEKYARF [Y2W], the protein stability index was found to be 4.98.

As to TKECRCIGEEKEMWNFGEKYARF [Y2K], the protein stability index worked out at 3.51.

As to TDECRCIGEEKEMWNFGEKYARF [Y2D], the protein stability index amounted to 4.27.

Consider TNECRCIGEEKEMWNFGEKYARF [Y2N], for which the protein stability index came out at 3.75.

As to TEECRCIGEEKEMWNFGEKYARF [Y2E], the protein stability index came out at 4.79.

For the variant TMECRCIGEEKEMWNFGEKYARF [Y2M], the protein stability index is 2.88.

For the variant TLECRCIGEEKEMWNFGEKYARF [Y2L], the protein stability index came to 3.66.

As to TRECRCIGEEKEMWNFGEKYARF [Y2R], the protein stability index was found to be 3.07.

As for TYKCRCIGEEKEMWNFGEKYARF [E3K], the protein stability index was 1.66.

Consider TYYCRCIGEEKEMWNFGEKYARF [E3Y], for which the protein stability index was 2.18.

For TYRCRCIGEEKEMWNFGEKYARF [E3R], the protein stability index was determined as 1.

On to TYMCRCIGEEKEMWNFGEKYARF [E3M], for which the protein stability index was determined as 2.49.

Regarding TYSCRCIGEEKEMWNFGEKYARF [E3S], the protein stability index was 1.94.

In the case of TYTCRCIGEEKEMWNFGEKYARF [E3T], the protein stability index amounted to 3.76.

On to TYPCRCIGEEKEMWNFGEKYARF [E3P], for which the protein stability index is 2.47.
